The target in assay [1] is T1, Fc gamma receptor RIIIA V176 (human, UniProt P08637 17-208).
T1 construct: soluble SPR analyte
Kind of assay: SPR, Fc captured, receptor as analyte, relative to wild type Fc. As to the method: (§1) Fc mutations to be potentially integrated into an ADAPTIR™ bispecific construct were analyzed for binding to the common Fc receptors (human and cyno) and C1Q, which is a component of the complement activation system. SPR experiments were conducted at 25° C. in HBS-EP+ buffer on a Biacore T200 system.
(§2) For these experiments, all four flow cells of a CM5 sensor chip were immobilized with goat F(ab′)2 anti-human Fc (Jackson ImmunoResearch) to a response level of ˜4000 RU. Fc variants and wild type Fc were diluted to 100 nM in HBS-EP+ and captured on the surface of the chip for 120 seconds at a flow rate of 10 μL/min. Fcγ receptors (human and cyno, all purchased from R&D Systems) and complement (C1Q, purchased from Quidel Corporation and Complement Technology, Inc) were diluted in HBS-EP+ and then flowed as analytes at 30 μL/min for 120 seconds followed by a 120 seconds dissociation. Regeneration was achieved by flowing 10 mM glycine pH 1.7 at 30 μL/min for 30 seconds followed by a 60 seconds stabilization. Flow cell 1 was always left as a blank (no captured protein) for purposes of background signal subtraction. Blank-subtracted sensorgrams for each captured Fc variant were inspected for the presence of binding to any of the Fcγ receptor proteins or complement. There are polymorphisms in the Human Fc receptors IIA and RIIIA, so both sequences were tested for binding.
In general terms: In SPR one partner is held on a chip, and binding of the other changes the refractive index at the surface.

The target in assay [2] is T2, Fc gamma receptor RIIB/C on CHO-K1SV cells (human, UniProt P31994 43-310).
T2 construct: whole, on cells
T2 sequence (looked up): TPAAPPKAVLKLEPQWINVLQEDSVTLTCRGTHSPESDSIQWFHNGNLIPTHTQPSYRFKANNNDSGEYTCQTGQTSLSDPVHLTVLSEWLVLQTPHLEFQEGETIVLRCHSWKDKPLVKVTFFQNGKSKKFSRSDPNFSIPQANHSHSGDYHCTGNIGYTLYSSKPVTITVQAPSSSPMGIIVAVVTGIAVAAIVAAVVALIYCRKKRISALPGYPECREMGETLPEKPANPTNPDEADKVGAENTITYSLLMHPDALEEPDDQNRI
Kind of assay: flow cytometry, CHO-K1SV transfectants. The method, then:
(§3) CHO-K1SV cells stably transfected with a series of FcγR receptors were incubated with each of the […] listed in Table 23. A typical experiment labeled approximately 100,000 cells per well, in 96-well plates, with a range of binding molecule concentrations of 1 to 1000 nM, in 100 μl of PBS buffer with 0.2% BSA and 2 mM EDTA, for 30 minutes on ice, followed by washes and incubation with PE-labeled minimum cross species reactive secondary antibody, goat anti-human IgG Fcγ, F(ab′)2 ([…]) for 30 minutes to 1 hour on ice. Signal from bound molecules was detected using a LSR-II™ flow cytometer (BD Biosciences) and analyzed by FlowJo flow cytometry analysis software. Mean fluorescence intensity (MFI) of bound molecules on cells was determined after exclusion of doublets.
Background: A flow cytometer gives signals particle by particle.

Assay [3] addresses T3, Fc gamma receptor RIIA R131 on CHO-K1SV cells (human, UniProt P12318 34-317).
T3 construct: whole, on cells
T3 sequence (looked up): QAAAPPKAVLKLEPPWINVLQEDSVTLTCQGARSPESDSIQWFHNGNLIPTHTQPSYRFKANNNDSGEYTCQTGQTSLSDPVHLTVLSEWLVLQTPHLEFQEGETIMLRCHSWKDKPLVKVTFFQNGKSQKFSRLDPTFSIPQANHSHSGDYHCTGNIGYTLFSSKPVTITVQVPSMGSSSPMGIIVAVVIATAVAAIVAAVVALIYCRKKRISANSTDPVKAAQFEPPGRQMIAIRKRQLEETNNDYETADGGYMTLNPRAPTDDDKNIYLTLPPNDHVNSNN
In words: flow cytometry, CHO-K1SV transfectants. As to the method:
as §3

In assay [4] the target is T4, Fc gamma receptor RIIA H131 on CHO-K1SV cells (human, UniProt P12318 34-317).
T4 construct: whole, on cells
T4 sequence (looked up): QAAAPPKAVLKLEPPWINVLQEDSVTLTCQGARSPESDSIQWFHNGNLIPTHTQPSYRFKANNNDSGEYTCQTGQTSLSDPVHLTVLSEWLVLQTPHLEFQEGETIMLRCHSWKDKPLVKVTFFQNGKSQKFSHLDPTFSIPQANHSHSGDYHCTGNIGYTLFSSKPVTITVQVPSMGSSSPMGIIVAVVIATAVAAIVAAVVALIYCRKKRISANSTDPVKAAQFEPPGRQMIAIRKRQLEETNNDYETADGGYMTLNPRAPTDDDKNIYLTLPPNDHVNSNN
In words: flow cytometry, CHO-K1SV transfectants. The method, then: as §3

The target in assay [5] is T5, Fc gamma receptor RIIIA F158 on CHO-K1SV cells (human, UniProt P08637 17-254).
T5 construct: whole, on cells
In words: flow cytometry, CHO-K1SV transfectants. As to the method: as §3

Assay [6] deals with T6, Fc gamma receptor RIIIB on CHO-K1SV cells (human, UniProt O75015 17-200).
T6 construct: whole, on cells
Kind of assay: flow cytometry, CHO-K1SV transfectants. As to the method: as §3

The target of the next assay is T7, Fc gamma receptor RIIIB (human, UniProt O75015 17-200).
T7 construct: soluble SPR analyte
In words: SPR, Fc captured, receptor as analyte. The method, then: as §1, §2

The next assay has as its target T8, Fc gamma receptor RIIB/C (human, UniProt P31994 46-217).
T8 construct: soluble SPR analyte
T8 sequence (looked up): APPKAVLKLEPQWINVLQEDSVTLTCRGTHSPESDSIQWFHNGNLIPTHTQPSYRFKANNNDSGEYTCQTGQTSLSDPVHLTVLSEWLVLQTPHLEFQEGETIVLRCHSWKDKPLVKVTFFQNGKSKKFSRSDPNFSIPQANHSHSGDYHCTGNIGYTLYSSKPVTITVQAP
In words: SPR, Fc captured, receptor as analyte. As to the method:
as §1, §2

Assay [7] has as its target T9, Fc gamma receptor RIIA H167 (human, UniProt P12318 36-218).
T9 construct: soluble SPR analyte
T9 sequence (looked up): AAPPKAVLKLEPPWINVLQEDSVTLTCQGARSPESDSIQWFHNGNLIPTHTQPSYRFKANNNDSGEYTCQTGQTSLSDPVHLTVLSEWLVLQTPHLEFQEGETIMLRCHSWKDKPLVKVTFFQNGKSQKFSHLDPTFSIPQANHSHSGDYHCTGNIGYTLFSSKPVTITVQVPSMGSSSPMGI
Kind of assay: SPR, Fc captured, receptor as analyte. As to the method:
as §1, §2

Assay [8] addresses T10, Fc gamma receptor RIIA R167 (human, UniProt P12318 36-218).
T10 construct: soluble SPR analyte
T10 sequence (looked up): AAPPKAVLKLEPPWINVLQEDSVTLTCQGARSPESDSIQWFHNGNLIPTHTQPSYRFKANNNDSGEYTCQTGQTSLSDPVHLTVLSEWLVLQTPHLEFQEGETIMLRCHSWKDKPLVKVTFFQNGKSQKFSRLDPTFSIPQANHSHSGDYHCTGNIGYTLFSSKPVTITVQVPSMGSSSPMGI
In words: SPR, Fc captured, receptor as analyte. As to the method: as §1, §2

The source of these data is patent US20220242962A1 (APTEVO RESEARCH AND DEVELOPMENT, published 2022).

T5 sequence (P08637 17-254): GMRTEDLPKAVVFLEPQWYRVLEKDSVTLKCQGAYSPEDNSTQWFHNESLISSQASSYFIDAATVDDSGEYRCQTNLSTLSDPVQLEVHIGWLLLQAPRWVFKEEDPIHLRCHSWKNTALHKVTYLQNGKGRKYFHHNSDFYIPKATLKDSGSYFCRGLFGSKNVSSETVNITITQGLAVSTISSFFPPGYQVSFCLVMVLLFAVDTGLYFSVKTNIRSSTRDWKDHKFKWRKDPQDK
T6 sequence (O75015 17-200): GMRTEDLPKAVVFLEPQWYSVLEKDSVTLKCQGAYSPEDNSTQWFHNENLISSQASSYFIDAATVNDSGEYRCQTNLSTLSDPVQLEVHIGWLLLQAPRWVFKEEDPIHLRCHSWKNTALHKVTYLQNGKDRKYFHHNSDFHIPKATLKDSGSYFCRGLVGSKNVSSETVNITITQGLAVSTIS
T7 sequence (O75015 17-200): as above
T1 sequence (P08637 17-208 F176V): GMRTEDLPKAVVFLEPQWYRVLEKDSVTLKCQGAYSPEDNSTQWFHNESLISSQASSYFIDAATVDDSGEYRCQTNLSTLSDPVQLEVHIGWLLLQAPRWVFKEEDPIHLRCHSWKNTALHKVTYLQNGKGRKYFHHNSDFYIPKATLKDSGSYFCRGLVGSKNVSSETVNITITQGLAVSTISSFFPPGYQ

B1: TSC 1005 (other)
chain: EPKSSDKTHTCPPCPAPPVAAPSVFLFPPKPKDTLMISRTPEVTCVVVDVSHEDPEVKFNWYVDGVEVHNAKTKPREEQYNSTYRVVSVLTVLHQDWLNGKEYKCAVSNKALPAPIEKTISKAKGQPREPQVYTLPPSRDELTKNQVSLTCLVKGFYPSDIAVEWESNGQPENNYKTTPPVLDSDGSFFLYSKLTVDKSRWQQGNVFSCSVMHEALHNHYTQKSLSLSPG
notes: IgG1 Fc with E233P, L234V, L235A, deletion of G236, G237A, K322A (EU); also called PVAdel TSC01005
In the case of B1, the binding result in [1] is “binds”; in assay [2], “no binding (tested: 1 to 1000 nM)”; in assay [3] it was “no binding (tested: 1 to 1000 nM)”; in assay [4] it was “no binding (tested: 1 to 1000 nM)”; in assay [5], “no binding (tested: 1 to 1000 nM)”; in [6] it was “no binding (tested: 1 to 1000 nM)”. Besides, the binding result (with Fc gamma receptor RIIIB; with Fc gamma receptor RIIB/C; in assay [7]; in assay [8]) was “no binding” throughout.
